In patent publication US9012420B2, “Aptamer for chymase, and use thereof” (Ribomic Inc., priority 2009, dated 2015):
Oligonucleotides are written 5' to 3', each unit as a sugar letter and its base; * is a phosphorothioate linkage, no mark a phosphodiester; rarer units and linkages stand in square brackets, end groups in braces. Plain capitals give the bases only. r = 2'-OH (RNA); f = 2'-fluoro

T1: chymase (Homo sapiens, UniProt P23946 P23946:22-247)
T1 sequence: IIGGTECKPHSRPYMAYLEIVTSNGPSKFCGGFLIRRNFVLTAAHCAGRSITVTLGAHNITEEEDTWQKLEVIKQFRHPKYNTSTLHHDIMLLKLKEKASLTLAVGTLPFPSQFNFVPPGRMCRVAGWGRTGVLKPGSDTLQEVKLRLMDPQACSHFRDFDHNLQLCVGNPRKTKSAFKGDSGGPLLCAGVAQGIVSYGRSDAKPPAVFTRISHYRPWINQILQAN

T2: chymase (recombinant, manufactured by SIGMA) (Homo sapiens, UniProt P23946)
T2 construct: purchased SIGMA; host or cells: yeast
T2 sequence (P23946 22-247): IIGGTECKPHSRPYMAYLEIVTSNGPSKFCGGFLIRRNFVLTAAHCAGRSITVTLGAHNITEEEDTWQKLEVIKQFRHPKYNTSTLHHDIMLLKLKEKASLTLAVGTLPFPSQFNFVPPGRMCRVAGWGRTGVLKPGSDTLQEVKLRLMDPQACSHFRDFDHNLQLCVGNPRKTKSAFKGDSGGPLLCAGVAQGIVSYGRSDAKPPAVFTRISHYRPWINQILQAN

T3: chymase (Homo sapiens, UniProt P23946)
T3 sequence (P23946 22-247): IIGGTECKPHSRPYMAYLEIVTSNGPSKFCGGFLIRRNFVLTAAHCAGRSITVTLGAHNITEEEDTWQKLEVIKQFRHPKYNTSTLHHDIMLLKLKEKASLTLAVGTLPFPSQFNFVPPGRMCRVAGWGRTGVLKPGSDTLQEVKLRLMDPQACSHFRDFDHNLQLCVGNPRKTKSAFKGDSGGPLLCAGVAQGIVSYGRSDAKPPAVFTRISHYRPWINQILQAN


How the values were obtained:
chymase [1] = biological target: T1, chymase; test: inhibition; Suc-AAPF-MCA, 37 C, solution C; conditions: tags: recombinant, expressed in yeast, SIGMA
Experimental: Here, Suc is a protecting succinyl group, and MCA is a 4-methylcoumaryl-7-amide group; upon cleavage of the C-terminal side of phenylalanine, AMC (7-amino-4-methyl-coumarine) is released. By detecting the fluorescence of this AMC, the enzyme activity of chymase can be determined. The assay was performed using a 96-well plate (F16 Black Maxisorp Fluoronunc, manufactured by Nunc), with a reaction mixture volume of 100 μL, in solution C as a buffer solution. First, each nucleic acid was serially diluted to 0.0027-2 μM concentrations in solution C to obtain 50 μL solutions. After 10 μL of the 1 mM substrate prepared in solution C was added thereto, the plate was set to the microplate reader SpectraMax190 (manufactured by Molecular Devices Corporation), and incubated at 37° C. for 5 minutes. Separately, 0.05 μg (or 0.005 μg) of chymase (recombinant, manufactured by SIGMA) was diluted in solution C to obtain a 40 μL chymase solution, and incubated at 37° C. for 5 minutes. The chymase solution was added to the mixture of the nucleic acid and substrate to initiate an enzyme reaction. The final chymase concentration in the reaction mixture was 16.7 nM (or 1.67 nM), the final substrate concentration being 100 μM. The plate containing the reaction mixture was set to the microplate reader SpectraMax190 (manufactured by Molecular Devices Corporation), and examined for time-dependent changes in the fluorescence intensity at 37° C. for 5 minutes (or 30 minutes) (excitation wavelength 380 nm, detection wavelength 460 nm). A linear approximation of the increase in the fluorescence of the AMC released from the substrate by chymase activity was generated, and its slope was taken as the initial velocity […]. For control, samples were treated and analyzed in the same manner in two cases: use of a 30N or 40N (a nucleotide of 30 or 40 consecutive bases represented by N; N is A, G, C or T) nucleic acid pool (negative control), and use of chymostatin, a known chymotrypsin-like serine protease inhibitor (positive control). Taking the initial reaction velocity without the nucleic acid and inhibitor (V_0) as a 100% enzyme activity, the inhibitory rate of each test substance was calculated using the following equation: […]
The chymase inhibitory activity was measured in the same manner as in Example 3.

[2] = biological target: T2, chymase (recombinant, manufactured by SIGMA); test: Chymase inhibitory activity using synthetic substrate Suc-Ala-Ala-Pro-Phe-MCA; format: biochemical; conditions: Table 3; substrate 100 μM, solution C, 37° C.; mean value for 2 to 3 measurements
Experimental: A first method employs a synthetic substrate. A useful chymase substrate is Suc-Ala-Ala-Pro-Phe-MCA (4-methylcoumaryl-7-amide group) (manufactured by Peptide Institute, Inc.), which contains the 4-amino acid peptide “Ala-Ala-Pro-Phe”, a standard substrate for chymotrypsin-like proteases.
The assay is performed using a 96-well plate (F16 Black Maxisorp Fluoronunc, manufactured by Nunc), with a reaction mixture volume of 100 μL, in a buffer solution (solution C; see Example 2 below). First, each nucleic acid is prepared in solution C to obtain 50 μL solutions. After 10 μL of the 1 mM substrate prepared in solution C is added, the plate is set to the microplate reader SpectraMax190 (manufactured by Molecular Devices Corporation), and incubated at 37° C. for 5 minutes. Separately, 0.05 μg of chymase (recombinant, manufactured by SIGMA) is diluted in solution C, and 40 μL of this dilution is incubated at 37° C. for 5 minutes. The chymase solution is added to the mixture of the nucleic acid and substrate to initiate an enzyme reaction. The plate containing the reaction mixture is set to the microplate reader SpectraMax190 (manufactured by Molecular Devices Corporation), and examined for time-dependent changes in the fluorescence intensity at 37° C. for 5 minutes (excitation wavelength 380 nm, detection wavelength 460 nm). A linear approximation of the increase in the fluorescence of the AMC (7-amino-4-methylcoumarine) released from the substrate by chymase activity is generated, and its slope is taken as the initial reaction velocity. For control, samples are treated and analyzed in the same manner in two cases: use of a nucleic acid pool containing a random sequence of 30 or 40 nucleotides (negative control), and use of chymostatin, a known chymotrypsin-like serine protease inhibitor (positive control). Taking the initial reaction velocity without the nucleic acid and inhibitor as a 100% enzyme activity, the inhibitory rate for each test substance is calculated, and the inhibitor concentration required to cause a 50% inhibition of the enzyme activity (IC50) is determined.
Whether the nucleic acids shown by SEQ ID NO: 4-20, 22-34, and 38-48 inhibit the enzyme activity of chymase was determined as described below. The chymase substrate used was Suc-Ala-Ala-Pro-Phe-MCA (manufactured by Peptide Institute, Inc.), which contains the 4-amino-acid peptide Ala-Ala-Pro-Phe, a standard substrate for chymotrypsin-like proteases. Here, Suc is a protecting succinyl group, and MCA is a 4-methylcoumaryl-7-amide group; upon cleavage of the C-terminal side of phenylalanine, AMC (7-amino-4-methylcoumarine) is released. By detecting the fluorescence of this AMC, the enzyme activity of chymase can be determined. The assay was performed using a 96-well plate (F16 Black Maxisorp Fluoronunc, manufactured by Nunc), with a reaction mixture volume of 100 μL, in solution C as a buffer solution. First, each nucleic acid was serially diluted to 0.0027-2 μM concentrations in solution C to obtain 50 μL solutions. After 10 μL of the 1 mM substrate prepared in solution C was added thereto, the plate was set to the microplate reader SpectraMax190 (manufactured by Molecular Devices Corporation), and incubated at 37° C. for 5 minutes. Separately, 0.05 μg (or 0.005 μg) of chymase (recombinant, manufactured by SIGMA) was diluted in solution C to obtain a 40 μL chymase solution, and incubated at 37° C. for 5 minutes. The chymase solution was added to the mixture of the nucleic acid and substrate to initiate an enzyme reaction. The final chymase concentration in the reaction mixture was 16.7 nM (or 1.67 nM), the final substrate concentration being 100 μM. The plate containing the reaction mixture was set to the microplate reader SpectraMax190 (manufactured by Molecular Devices Corporation), and examined for time-dependent changes in the fluorescence intensity at 37° C. for 5 minutes (or 30 minutes) (excitation wavelength 380 nm, detection wavelength 460 nm). […]

chymase [3] = biological target: T3, chymase; test: Surface plasmon resonance (Biacore T100), aptamer immobilized on SA chip, chymase injected as analyte; format: binding; parameters: key: ++: a sequence that binds to chymase significantly more strongly than the negative control 40N; +: a sequence that binds to chymase equivalently compared with the negative control 40N; conditions: Table 1; about 1000 RU nucleic acid immobilized, chymase 0.2 μM analyte, running buffer solution A; compared with 40N
Experimental: Binding strength is measured using Biacore T100 (manufactured by GE Healthcare). In a method of measurement, the aptamer is first immobilized onto a sensor chip, the amount immobilized being about 1000 RU. 20 μL of a chymase solution for analyte, prepared at 0.2 μM, is injected, and the binding of chymase to the aptamer is detected. An RNA comprising a random nucleotide sequence of 30 or 40 nucleotides is used as a negative control.
The binding activities against chymase of the nucleic acids shown by SEQ ID NO: 4-20 and 22-34 were determined by the surface plasmon resonance method using Biacore T100 (manufactured by GE Healthcare). The sensor chip used was the SA chip, which had streptavidin immobilized thereon. Bound thereto was about 1500 RU of a 16-nucleotide Poly dT with biotin bound to the 5′ end thereof. […] 20 μL of chymase for analyte, prepared at 0.2 μM, was injected. Solution A was used as a running buffer.
The binding activities against chymase of the nucleic acids shown by SEQ ID NO: 38-48 were evaluated by the surface plasmon resonance method. In the evaluations for SEQ ID NO: 38-48, measurements were taken in the same manner as Example 1. Solution C was used as a running buffer.

Molecule	IC50 (chymase [1]) [µM]	IC50 [2] [µM]	Binding activity as determined using Biacore (chymase [3])
GGGUUAGAUAGAGUUAAAAACCC (ssRNA, 2'-F U and C; 2'-OMe 1-3,19,20; 5' and 3' idT) [56(24)]	0.038		
GGGUUAGAUAGAGUUAAAAACCC (ssRNA, 2'-F U and C; 2'-OMe 1-3,10,13,16-20; PS 7-8; 5' and 3' idT) [56(36)]	0.097		
GGGUUAGAUAGAGUUAAAAACCC (ssRNA, 2'-F U and C; 2'-OMe 7,8,10; 5' and 3' idT) [56(25)]	0.07		
GGGUUAGAUAGAGUUAAAAACCC (ssRNA, 2'-F U and C; 2'-OMe 1-3,7,8,10,16,17,19,20) [56(20)]	0.102		
9 (nucleic acid) rGrGrGrAfCrGrGfUrArGrGrArAfUfUfCfCfCrGrArArArArGfCrArAfCrArArGfCfUfUrGfCfUrArArArAfUrGrAfUfUfCfCrGrArArArArArAfCrAfCrAfUrArGrArArGrArGfCrGrGfCfCrGfC		0.273 ± 0.069	++
GGGUUAGAUAGAGUUAAAAACCC (ssRNA, 2'-F U and C; 2'-OMe 2,3,7,8,10,13,16-20; PS 6-7; 5' and 3' idT) [56(41)]	0.053		
GGGTTAGAUAGAGTUAAAAACCC (mixed, 2'-F U; 2'-OMe 1-3,7,8,10,13,17-20; DNA T4,T5,T14,A16,C21-C23; 5' and 3' idT) [72(4)]	0.065		
10 (nucleic acid, aptamer) rGrGrGrAfCrGrGfUrArGrGrArAfUfUfCfCrGfCfCrGfCfCfUrArArArArArAfCrGrAfCrGrAfUrAfUfUrAfCrArGrArArAfCrGfUfCrArArAfUrAfCrAfUrArGrArArGrArGfCrGrGfCfCrGfC		> 0.5	++
12 (nucleic acid, aptamer) rGrGrGrAfCrGrGfUrArGrGrArAfUfUfCrGfCfCrGfUfCrArAfCrGfUfUrAfCrAfUrArAfUrGfUrAfUrAfUrAfCfCrArGrGrGfUrArAfCfUrArArAfCrAfUrArGrArArGrArGfCrGrGfCfCrGfC		0.128 ± 0.023	++
8 (nucleic acid, aptamer) rGrGrGrAfCrGrGfUrArGrGrArAfUfUfCfUrAfCrGrGfUfCfUrGfUrGfUrGrArArAfUfUrGrArArAfCrAfCrAfCrArArArGrArAfCrArAfUrArArAfCrAfUrArGrArArGrArGfCrGrGfCfCrGfC		0.453 ± 0.463	++
GGGUUAGAUAGAGUUAAAAACCC (mixed, 2'-F U and C; 2'-OMe 1-3,7,10,13,16-20; DNA A6; 5' and 3' idT) [56(49)]	0.069		
GGGUUAGAUAGAGUUAAAAACCC (ssRNA, 2'-F U and C; 2'-OMe 2,3,7,8,10,13,16-20; 5' and 3' idT) [56(40)]	0.051		
GGGUUAGAUAGAGUUAAAAACCC (mixed, 2'-F U and C; 2'-OMe 1-3,10,13,16-20; DNA G7,A8; 5' and 3' idT) [56(52)]	0.052		
GGGTTAGAUAGAGTUAAAAACCC (mixed, 2'-F U; 2'-OMe 1-3,7,8,10,16-20; DNA T4,T5,G13,T14,C21-C23; 5' and 3' idT) [72(3)]	0.05		
11 (nucleic acid, aptamer) rGrGrGrAfCrGrGfUrArGrGrArAfUfUfCfCfCrGrAfCrAfCrGrArArAfUrGfUrGfUrGrAfUfUrArAfUfUfCfCrGrArAfCrArAfCrArArArGfUrArAfCrAfUrArGrArArGrArGfCrGrGfCfCrGfC		0.145 ± 0.036	++
15 (nucleic acid, aptamer) rGrGrGrAfCrGrGfUrArGrGrArAfUfUfCfCfCrArGrArArArAfUrArArAfUfUfCfCrGrArArGrArArArAfCrArAfCrArAfUfUfUfUfUrGfCrArArAfCrAfUrArGrArArGrArGfCrGrGfCfCrGfC		0.285 ± 0.021	++
GGGUUAGAUAGAGUUAAAAACCC (ssRNA, 2'-F U and C; 2'-OMe 1-3,10,13,16-20; PS 6-7,7-8; 5' and 3' idT) [56(37)]	0.046		
GGGUUAGAUAGAGUUAAAAACCC (ssRNA, 2'-F U and C; 2'-OMe 2,3,7,8,10,13,16-20; 5' PEG 40 kDa; 3' idT) [56(39)]	0.086		
